{"source": "paper PMC4569521", "about": "(Journal of molecular biology, 2015)", "molecular_target": "T1, N-domain of ClpX (residue 1–64) (E. coli, UniProt P0A6H1 1-64)", "T1 sequence (looked up)": "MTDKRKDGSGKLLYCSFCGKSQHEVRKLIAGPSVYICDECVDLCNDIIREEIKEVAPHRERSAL", "assay": "fluorescence polarisation", "note": "Where no end group is shown, it is not given here. fluorescein = fluorescein label at the N-terminus", "data": [{"binder": "fluorescein-ESRIVGIFRPSGNTERVKNQ", "note": "[fluorescein-labeled E-tag peptide (MuA residues 614–633)]", "values": [{"measurement": "Kd", "result": "~380", "unit": "µM"}]}]}
